The supplement of paper PMC9233669
Fewer inactive variants are shown than the library holds.

How the values were obtained:
[1] = tested on: biotinyl-Phe-oxazolone; assay: self-aminoacylation, catalytic enhancement (BFO) (fold over background); higher = more active; k-Seq, kA / k0A0; sequences stand for … in GGGAAUGGAUCCACAUCUACGAAUUC…UUCACUGCAGACUUGACGAAGCUG
Method in brief: (§1)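 Mutagenized RNA pools with a 21-nt variable region (0.43 μM) were reacted with each biotinyl-aminoacyl-oxazolone at 2–1250 μM for 90 minutes at room temperature, in 50 μL HEPES/NaCl/KCl/MgCl2/CaCl2 buffer containing 5% acetonitrile at pH 6.9–7.0. RNA captured on streptavidin was quantified by triplicate qPCR and by Illumina sequencing. The fraction reacted for each sequence was fit to a pseudo-first-order model with bootstrapping, and catalytic enhancement is the median kA divided by the uncatalyzed rate, taken as the low-activity peak of a bimodal Gaussian fit.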

[2] = tested on: biotinyl-Ile-oxazolone; assay: self-aminoacylation, catalytic enhancement (BIO) (fold over background); higher = more active; k-Seq, kA / k0A0; sequences stand for … in GGGAAUGGAUCCACAUCUACGAAUUC…UUCACUGCAGACUUGACGAAGCUG
Method in brief: as §1

[3] = tested on: biotinyl-Met-oxazolone; assay: self-aminoacylation, catalytic enhancement (BMO) (fold over background); higher = more active; k-Seq, kA / k0A0; sequences stand for … in GGGAAUGGAUCCACAUCUACGAAUUC…UUCACUGCAGACUUGACGAAGCUG
Method in brief: as §1

[4] = tested on: biotinyl-Val-oxazolone; assay: self-aminoacylation, catalytic enhancement (BVO) (fold over background); higher = more active; k-Seq, kA / k0A0; sequences stand for … in GGGAAUGGAUCCACAUCUACGAAUUC…UUCACUGCAGACUUGACGAAGCUG
Method in brief: as §1

[5] = tested on: biotinyl-Leu-oxazolone; assay: self-aminoacylation, catalytic enhancement (BLO) (fold over background); higher = more active; k-Seq, kA / k0A0; sequences stand for … in GGGAAUGGAUCCACAUCUACGAAUUC…UUCACUGCAGACUUGACGAAGCUG
Method in brief: as §1

[6] = tested on: biotinyl-Trp-oxazolone; assay: self-aminoacylation, catalytic enhancement (BWO) (fold over background); higher = more active; k-Seq, kA / k0A0; sequences stand for … in GGGAAUGGAUCCACAUCUACGAAUUC…UUCACUGCAGACUUGACGAAGCUG
Method in brief: as §1

Sequence	self-aminoacylation [1]	self-aminoacylation [2]	self-aminoacylation [3]	self-aminoacylation [4]	self-aminoacylation [5]	self-aminoacylation [6]
AUGCACCUAGGUCAUCGCGUG [Fam2.2 aminoacylation ribozyme variant]	56	5.09	8.45	5.84	12	11
GUUCAACUAGGUCAUCGGGUG [Fam2.2 aminoacylation ribozyme variant]	42.6	4.28	5.04	4.16	6.94	6.75
AUUCACCGAGGUCAUCGGAUG [Fam2.2 aminoacylation ribozyme variant]	0.641	1.18	1.07	1.17	1.41	1.42
AAGUUUGCGAAUCGUCGCAAG [Fam3.1 aminoacylation ribozyme variant]	1.79	1.31	1.19	1.1	0.942	1
AUUCACCUUUGUCAUCGGGUG [Fam2.2 aminoacylation ribozyme variant]	25.4	3.14	4.43	3.11	5.41	4.62
AUUCCCCUAGGUCAUCGGCUG [Fam2.2 aminoacylation ribozyme variant]	30.9	8.03	6.91	7.07	7.58	6.44
AAGUUUGCUAACAGUCUCAAG [Fam3.1 aminoacylation ribozyme variant]	4.44	0.979	0.713	0.694	0.733	1.64
AUUCACCAAGGUCAACGGGUG [Fam2.2 aminoacylation ribozyme variant]	42.5	3.52	6.3	3.1	8.07	6.16
AUUACGCUGGCCAUCGAGUGA [Fam2.1 aminoacylation ribozyme variant]	32.4	4.5	6.9	4.76	5.89	8.46
CUACUCCACACAAUCGGUCUG [Fam1A.1 aminoacylation ribozyme variant]	0.891	0.696	0.722	0.731	0.702	0.9
CUACUUCCUACAAUCGGUCUG [Fam1A.1 aminoacylation ribozyme variant]	0.51	0.76	0.835	0.801	0.671	0.511
AUUACCCUCGUCAUCGAGUGA [Fam2.1 aminoacylation ribozyme variant]	8.82	2.08	2.98	2.07	3.09	3.22
AUUACCCUGGUAAUCGAGUGA [Fam2.1 aminoacylation ribozyme variant]	54.5	3.7	8.63	3.82	8.46	9.96
